In this data set the target is T1, EsCas13d, nuclease-dead (Eubacterium siraeum, UniProt B0MS50, R295A;H300A;R849A;H854A).
T1 sequence: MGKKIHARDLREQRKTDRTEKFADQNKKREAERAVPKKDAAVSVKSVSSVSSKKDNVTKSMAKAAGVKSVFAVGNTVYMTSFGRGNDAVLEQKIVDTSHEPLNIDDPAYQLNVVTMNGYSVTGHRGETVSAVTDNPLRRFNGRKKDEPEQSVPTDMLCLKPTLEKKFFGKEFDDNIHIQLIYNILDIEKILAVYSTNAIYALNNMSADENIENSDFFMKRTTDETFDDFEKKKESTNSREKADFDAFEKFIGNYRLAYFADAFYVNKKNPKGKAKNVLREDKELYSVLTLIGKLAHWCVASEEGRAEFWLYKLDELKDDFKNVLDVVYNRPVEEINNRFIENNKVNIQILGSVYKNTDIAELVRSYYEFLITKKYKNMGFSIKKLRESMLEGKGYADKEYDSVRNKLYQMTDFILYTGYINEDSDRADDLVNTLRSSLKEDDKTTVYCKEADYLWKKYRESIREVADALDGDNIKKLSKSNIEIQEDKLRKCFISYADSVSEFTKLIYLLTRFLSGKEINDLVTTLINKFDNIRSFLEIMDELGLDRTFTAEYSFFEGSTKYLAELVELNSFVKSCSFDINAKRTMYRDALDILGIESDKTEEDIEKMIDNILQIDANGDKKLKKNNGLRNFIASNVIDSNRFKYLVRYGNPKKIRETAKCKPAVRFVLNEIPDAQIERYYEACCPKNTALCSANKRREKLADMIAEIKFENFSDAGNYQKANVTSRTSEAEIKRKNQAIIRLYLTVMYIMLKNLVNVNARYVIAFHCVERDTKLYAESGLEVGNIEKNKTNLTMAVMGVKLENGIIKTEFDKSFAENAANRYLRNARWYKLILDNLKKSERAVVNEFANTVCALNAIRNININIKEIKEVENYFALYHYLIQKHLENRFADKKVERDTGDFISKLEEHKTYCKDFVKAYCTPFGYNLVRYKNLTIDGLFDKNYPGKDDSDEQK
The experiment in a line: BLI; crRNA (strand 1, pre-loaded); Mg2+; 40 mM Tris-HCl pH 7.5, 150 mM NaCl, 6 mM MgCl2, 1 mM DTT, 0.1% Tween-20, 0.2 mg/ml BSA; temperature not stated. The settings on record: tags: His6-TwinStrep-SUMO cleaved; label: 3' biotin on strand 2.

B1: crRNA-2 (D950N) target (mixed)
RNA 1: CACCCGUGCAAAAUUGCAGGGGUCUAAAACCUUGAAGUUUUCCAAGUGCACU
RNA 2: UCCACAGCAAGUGCACUUGGAAAACUUCAAAAUGUGGUCA
Regarding B1, binding was put at a Kd of 2.9 nM.

B2: crRNA-1 (D950N) target (mixed)
RNA 1: CACCCGUGCAAAAUUGCAGGGGUCUAAAACUUUUGGUUGACCACAUCUUGAA
RNA 2: UUGGAAAACUUCAAAAUGUGGUCAACCAAAAUGCACAAGC
With B2, the Kd (in general, the constant that tells how readily two partners part at equilibrium) was found to be 15 nM.

Source of the values: PMC10786891, “Massively parallel profiling of RNA-targeting CRISPR-Cas13d”.
